B4: GAL4 DBD fused Rb fragment (aa 371-928) (other)
chain: MKLLSSIEQACDICRLKKLKCSKEKPKCAKCLKNNWECRYSPKTKRSPLTRAHLTEVESRLERLEQLFLLIFPREDLDMILKMDSLQDIKALLTGLFVQDNVNKDAVTDRLASVETDMPLTLRQHRISATSSSEESSNKGQRQLTVSPHTPVRTVMNTIQQLMMILNSASDQPSENLISYFNNCTVNPKESILKRVKDIGYIFKEKFAKAVGQGCVEIGSQRYKLGVRLYYRVMESMLKSEEERLSIQNFSKLLNDNIFHMSLLACALEVVMATYSRSTSQNLDSGTDLSFPWILNVLNLKAFDFYKVIESFIKAEGNLTREMIKHLERCEHRIMESLAWLSDSPLFDLIKQSKDREGPTDHLESACPLNLPLQNNHTAADMYLSPVRSPKKKGSTTRVNSTANAETQATSAFQTQKPLKSTSLSLFYKKVYRLAYLRLNTLCERLLSEHPELEHIIWTLFQHTLQNEYELMRDRHLDQIMMCSMYGICKVKNIDLKFKIIVTAYKDLPHAVQETFKRVLIKEEEYDSIIVFYNSVFMQRLKTNILQYASTRPPTLSPIPHIPRSPYKFPSSPLRIPGGNIYISPLKSPYKISEGLPTPTKMTPRSRILVSIGESFGTSEKFQKINQMVCNSDRVLKRSAEGSNPPKPLKKLRFDIEGSDEADGSKHLPGESKFQQKLAEMTSTRTRMQKQKMNDSMDTSNKEEK

Test [1] addresses T1, VP16 fused AR (Example 3) (human, UniProt P10275 36-920).
T1 construct: also called VP16-AR
T1 sequence: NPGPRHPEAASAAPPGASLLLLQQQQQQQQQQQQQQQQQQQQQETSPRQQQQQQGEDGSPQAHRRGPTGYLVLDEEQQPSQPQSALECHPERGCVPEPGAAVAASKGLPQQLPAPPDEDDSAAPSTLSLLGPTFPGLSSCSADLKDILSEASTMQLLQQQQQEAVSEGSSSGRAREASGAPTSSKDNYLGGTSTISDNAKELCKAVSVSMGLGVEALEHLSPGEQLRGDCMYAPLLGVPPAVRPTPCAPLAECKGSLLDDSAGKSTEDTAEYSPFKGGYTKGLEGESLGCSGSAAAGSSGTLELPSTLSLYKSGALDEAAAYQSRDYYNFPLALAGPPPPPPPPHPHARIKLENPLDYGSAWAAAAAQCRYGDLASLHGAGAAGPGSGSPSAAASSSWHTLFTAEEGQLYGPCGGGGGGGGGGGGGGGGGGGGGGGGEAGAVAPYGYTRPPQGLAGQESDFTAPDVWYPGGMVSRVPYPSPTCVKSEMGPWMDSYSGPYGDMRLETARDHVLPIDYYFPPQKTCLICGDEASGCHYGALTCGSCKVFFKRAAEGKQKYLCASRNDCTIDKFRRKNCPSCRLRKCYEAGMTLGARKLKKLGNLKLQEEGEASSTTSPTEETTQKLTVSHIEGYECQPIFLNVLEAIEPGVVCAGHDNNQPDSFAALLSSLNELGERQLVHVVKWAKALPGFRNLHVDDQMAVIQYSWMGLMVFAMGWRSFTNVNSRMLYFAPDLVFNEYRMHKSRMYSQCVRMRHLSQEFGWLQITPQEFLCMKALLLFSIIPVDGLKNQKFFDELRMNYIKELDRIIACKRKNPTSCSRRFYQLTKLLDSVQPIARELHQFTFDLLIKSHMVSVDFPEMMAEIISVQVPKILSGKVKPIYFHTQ
Kind of test: mammalian two-hybrid, DU145, pG5-Luc.

The target in test [2] is B4. Kind of test: mammalian two-hybrid, DU145, CAT.
Test [3] addresses T2, GAL4 DBD fused with C-terminal fragment (aa 595-918) of wild-type AR (human, UniProt P04386 1-147 (Saccharomyces cerevisiae entry)).
T2 construct: range 1-147; also called pAS2-AR; pAS2-wtAR
As to the kind of experiment: yeast two-hybrid, plate nutritional selection.
Excerpt: (§1) (B) The domains of ARA70 responsible for AR interaction by yeast two-hybrid assay. The interaction of different domains/motifs of ARA70 with wtAR assayed by plate nutritional selection in the yeast Y190 strain. […] Data were reproducible in two independent transformations.

In test [4] the target is T3, VP16 fused near full-length AR (nAR, aa 36-918) (human, UniProt P10275 36-919).
T3 sequence: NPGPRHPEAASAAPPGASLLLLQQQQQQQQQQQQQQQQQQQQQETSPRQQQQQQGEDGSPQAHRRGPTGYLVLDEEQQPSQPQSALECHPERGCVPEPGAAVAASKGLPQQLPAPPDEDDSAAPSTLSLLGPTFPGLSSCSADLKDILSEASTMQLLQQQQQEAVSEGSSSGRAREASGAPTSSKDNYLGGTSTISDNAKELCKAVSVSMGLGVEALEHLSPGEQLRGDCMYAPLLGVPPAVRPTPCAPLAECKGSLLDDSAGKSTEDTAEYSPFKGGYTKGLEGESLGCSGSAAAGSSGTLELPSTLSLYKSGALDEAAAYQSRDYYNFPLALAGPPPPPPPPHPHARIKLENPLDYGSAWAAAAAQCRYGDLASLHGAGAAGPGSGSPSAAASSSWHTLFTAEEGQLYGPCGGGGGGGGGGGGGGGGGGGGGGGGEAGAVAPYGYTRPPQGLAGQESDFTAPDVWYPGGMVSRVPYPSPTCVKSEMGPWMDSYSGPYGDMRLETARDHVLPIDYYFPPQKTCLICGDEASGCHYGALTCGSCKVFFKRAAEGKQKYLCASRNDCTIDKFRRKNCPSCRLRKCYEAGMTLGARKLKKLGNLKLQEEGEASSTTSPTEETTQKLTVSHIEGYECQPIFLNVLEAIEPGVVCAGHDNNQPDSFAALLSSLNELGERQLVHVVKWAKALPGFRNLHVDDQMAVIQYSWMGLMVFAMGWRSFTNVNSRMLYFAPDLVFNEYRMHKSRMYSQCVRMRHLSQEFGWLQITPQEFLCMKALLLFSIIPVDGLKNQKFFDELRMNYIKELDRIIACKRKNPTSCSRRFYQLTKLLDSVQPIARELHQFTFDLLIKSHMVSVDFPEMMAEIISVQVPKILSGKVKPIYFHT
Kind of test: cell-based or functional assay.

In test [5] the target is T2, GAL4 DBD fused with C-terminal fragment …. Kind of test: yeast two-hybrid, 10 nM DHT.
Excerpt: as §1
Test [6] addresses pGAL0-AR: GAL4 DBD (a.a. 1-147) fused to hinge and LBD of wtAR (human, UniProt P04386 1-147 (Saccharomyces cerevisiae entry)). Kind of test: cell-based or functional assay.

This is an account of results in patent US20060270591A1 (published 2006).

B1: GAL4 DBD fused ARA70-C (aa 383-614) (other)
chain: MKLLSSIEQACDICRLKKLKCSKEKPKCAKCLKNNWECRYSPKTKRSPLTRAHLTEVESRLERLEQLFLLIFPREDLDMILKMDSLQDIKALLTGLFVQDNVNKDAVTDRLASVETDMPLTLRQHRISATSSSEESSNKGQRQLTVSSMVTEDWLVQNHQDPCKVEEVCRANEPCTSFAECVCDENCEKEALYKWLLKKEGKDKNGMPVEPKPEPEKHKDSLNMWLCPRKEVIEQTKAPKAMTPSRIADSFQVIKNSPLSEWLIRPPYKEGSPKEVPGTEDRAGKQKFKSPMNTSWCSFNTADWVLPGKKMGNLSQLSSGEDKWLLRKKAQEVLLNSPLQEEHNFPPDHYGLPAVCDLFACMQLKVDKEKWLYRTPLQM
notes: Mammalian two-hybrid
For the molecule B1, the binding result in test [1] was “no binding”.

B2: VP16 fused AR-LBD (aa 590-918) (receptor)
chain: KQKYLCASRNDCTIDKFRRKNCPSCRLRKCYEAGMTLGARKLKKLGNLKLQEEGEASSTTSPTEETTQKLTVSHIEGYECQPIFLNVLEAIEPGVVCAGHDNNQPDSFAALLSSLNELGERQLVHVVKWAKALPGFRNLHVDDQMAVIQYSWMGLMVFAMGWRSFTNVNSRMLYFAPDLVFNEYRMHKSRMYSQCVRMRHLSQEFGWLQITPQEFLCMKALLLFSIIPVDGLKNQKFFDELRMNYIKELDRIIACKRKNPTSCSRRFYQLTKLLDSVQPIARELHQFTFDLLIKSHMVSVDFPEMMAEIISVQVPKILSGKVKPIYFHT
notes: also called pCMX-VP16-AR
For B2, the binding result in test [2] was “no binding”.

B3: GALAD70-N2: GAL4AD fused ARA70 aa 176-401 (other, not shown: large carriers)
chain: GPFLEKRGCISMPEQKSASGIVAVPFSEWLLGSKPASGYQAPYIPSTDPQDWLTQKQTLENSQTSSRACNFFNNVGGNLKGLENWLLKSEKSSYQKCNSHSTTSSFSIEMEKVGDQELPDQDEMDLSDWLVTPQESHKLRKPENGSRETSEKFKLLFQSYNVNDWLVKTDSCTNCQGNQPKGVEIENLGNLKCLNDHLEAKKPLSTPSMVTEDWLVQNHQDPCKVE
notes: also called ARA70-N2 peptide (aa 176 to 401); ARA70-N2
Regarding B3, the binding result in test [3] is on record as “binds”.
With B4, in test [4], the “CAT activity, mammalian two-hybrid system, DU145 cells” value was 3 fold.
On to QQLYSLLGQF (peptide, not shown: large carriers, also called ARA70 LXXLL (aa 90 to 99)) [GALAD70-LXXLL: GAL4AD fused ARA70 aa 90-99], for which the binding result in test [5] was “no binding”.

B5: ARA70 (mammalian two-hybrid construct of Example 1) (other)
chain: MNTFQDQSGSSSNREPLLRCSDARRDLELAIGGVLRAEQQIKDNLREVKAQIHSCISRHLECLRSREVWLYEQVDLIYQLKEETLQQQAQQLYSLLGQFNCLTHQLECTQNKDLANQVSVCLERLGSLTLKPEDSTVLLFEADTITLRQTITTFGSLKTIQIPEHLMAHASSANIGPFLEKRGCISMPEQKSASGIVAVPFSEWLLGSKPASGYQAPYIPSTDPQDWLTQKQTLENSQTSSRACNFFNNVGGNLKGLENWLLKSEKSSYQKCNSHSTTSSFSIEMEKVGDQELPDQDEMDLSDWLVTPQESHKLRKPENGSRETSEKFKLLFQSYNVNDWLVKTDSCTNCQGNQPKGVEIENLGNLKCLNDHLEAKKPLSTPSMVTEDWLVQNHQDPCKVEEVCRANEPCTSFAECVCDENCEKEALYKWLLKKEGKDKNGMPVEPKPEPEKHKDSLNMWLCPRKEVIEQTKAPKAMTPSRIADSFQVIKNSPLSEWLIRPPYKEGSPKEVPGTEDRAGKQKFKSPMNTSWCSFNTADWVLPGKKMGNLSQLSSGEDKWLLRKKAQEVLLNSPLQEEHNFPPDHYGLPAVCDLFACMQLKVDKEKWLYRTPLQM
notes: pGAL4-VP16 was used to construct a fusion of ARA70; limits and fusion partner not clearly stated
B5: in test [6], the “CAT activity, mammalian two-hybrid assay” value came out at 12 fold. Further, the binding result in test [2] is given as “no binding”.

B6: GALAD70-N1: GAL4AD fused ARA70 aa 1-175 (other, not shown: large carriers)
chain: MNTFQDQSGSSSNREPLLRCSDARRDLELAIGGVLRAEQQIKDNLREVKAQIHSCISRHLECLRSREVWLYEQVDLIYQLKEETLQQQAQQLYSLLGQFNCLTHQLECTQNKDLANQVSVCLERLGSLTLKPEDSTVLLFEADTITLRQTITTFGSLKTIQIPEHLMAHASSANI
notes: also called ARA70-N1
Take B6: in test [5], the binding result was “no binding”.

B7: GALAD70-N: GAL4AD fused ARA70 aa 1-401 (other, not shown: large carriers)
chain: MNTFQDQSGSSSNREPLLRCSDARRDLELAIGGVLRAEQQIKDNLREVKAQIHSCISRHLECLRSREVWLYEQVDLIYQLKEETLQQQAQQLYSLLGQFNCLTHQLECTQNKDLANQVSVCLERLGSLTLKPEDSTVLLFEADTITLRQTITTFGSLKTIQIPEHLMAHASSANIGPFLEKRGCISMPEQKSASGIVAVPFSEWLLGSKPASGYQAPYIPSTDPQDWLTQKQTLENSQTSSRACNFFNNVGGNLKGLENWLLKSEKSSYQKCNSHSTTSSFSIEMEKVGDQELPDQDEMDLSDWLVTPQESHKLRKPENGSRETSEKFKLLFQSYNVNDWLVKTDSCTNCQGNQPKGVEIENLGNLKCLNDHLEAKKPLSTPSMVTEDWLVQNHQDPCKVE
notes: the legend says GAL4AD fusions; also called ARA70N peptide (aa 1 to 401); ARA70-N
B7: in test [3], the binding result is reported as “binds”.

B8: GAL4 DBD fused ARA70-N1 (aa 1-175) (other)
chain: MKLLSSIEQACDICRLKKLKCSKEKPKCAKCLKNNWECRYSPKTKRSPLTRAHLTEVESRLERLEQLFLLIFPREDLDMILKMDSLQDIKALLTGLFVQDNVNKDAVTDRLASVETDMPLTLRQHRISATSSSEESSNKGQRQLTVSMNTFQDQSGSSSNREPLLRCSDARRDLELAIGGVLRAEQQIKDNLREVKAQIHSCISRHLECLRSREVWLYEQVDLIYQLKEETLQQQAQQLYSLLGQFNCLTHQLECTQNKDLANQVSVCLERLGSLTLKPEDSTVLLFEADTITLRQTITTFGSLKTIQIPEHLMAHASSANI
notes: Mammalian two-hybrid
Turning to B8, in test [1], the binding result is reported as “no binding”.

B9: GALAD70-C: GAL4AD fused ARA70 aa 383-614 (other, not shown: large carriers)
chain: SMVTEDWLVQNHQDPCKVEEVCRANEPCTSFAECVCDENCEKEALYKWLLKKEGKDKNGMPVEPKPEPEKHKDSLNMWLCPRKEVIEQTKAPKAMTPSRIADSFQVIKNSPLSEWLIRPPYKEGSPKEVPGTEDRAGKQKFKSPMNTSWCSFNTADWVLPGKKMGNLSQLSSGEDKWLLRKKAQEVLLNSPLQEEHNFPPDHYGLPAVCDLFACMQLKVDKEKWLYRTPLQM
notes: also called ARA70-C (aa 383-614)
Regarding B9, in test [5], the binding result is “no binding”.
